Test results: patent US20050266009A1

Tests used:
Experiment in all cases: ELISA on coated peptide
[1] = biological target: T1, CCR5 (residues 1-18) derived peptide sulfated at 1st tyrosine position
T1 sequence (peptide, sulfated at 1st tyrosine position): MDYQVSSPIYDINYYTSE

[2] = biological target: T2, CCR5 (residues 1-18) derived peptide sulfated at 2nd tyrosine position
T2 sequence (peptide, sulfated at 2nd tyrosine position): MDYQVSSPIYDINYYTSE

[3] = biological target: T3, CCR5 (residues 1-18) derived peptide sulfated at 3rd tyrosine position
T3 sequence (peptide, sulfated at 3rd tyrosine position): MDYQVSSPIYDINYYTSE

[4] = biological target: T4, CCR5 (residues 1-18) derived peptide, non-sulfated
T4 sequence (peptide): MDYQVSSPIYDINYYTSE

[5] = biological target: T5, GPIb (residues 268-285) derived peptide sulfated at 1st tyrosine position
T5 sequence (peptide, sulfated at 1st tyrosine position): GDEGDTDLYDYYPEEDTE

[6] = biological target: T6, GPIb (residues 268-285) derived peptide sulfated at 3rd tyrosine position
T6 sequence (peptide, sulfated at 3rd tyrosine position): GDEGDTDLYDYYPEEDTE

[7] = biological target: T7, GPIb (residues 268-285) derived peptide, non-sulfated
T7 sequence (peptide): GDEGDTDLYDYYPEEDTE

[8] = biological target: T8, PSGL-1 (residues 42-58) derived peptide sulfated at 1st tyrosine position
T8 sequence (peptide, sulfated at 1st tyrosine position): QATEYEYLDYDFLPETE

[9] = biological target: T9, PSGL-1 (residues 42-58) derived peptide sulfated at 2nd tyrosine position
T9 sequence (peptide, sulfated at 2nd tyrosine position): QATEYEYLDYDFLPETE

[10] = biological target: T10, PSGL-1 (residues 42-58) derived peptide sulfated at 3rd tyrosine position
T10 sequence (peptide, sulfated at 3rd tyrosine position): QATEYEYLDYDFLPETE

[11] = biological target: T11, PSGL-1 (residues 42-58) derived peptide, non-sulfated
T11 sequence (peptide): QATEYEYLDYDFLPETE

ELISA reading at 450 nm [1]: 0.06
ELISA reading at 450 nm [2]: 0.06
ELISA reading at 450 nm [3]: 0.06
ELISA reading at 450 nm [4]: 0.06
ELISA reading at 450 nm [5]: 0.07
ELISA reading at 450 nm [6]: 0.07
ELISA reading at 450 nm [7]: 0.07
ELISA reading at 450 nm [8]: 0.06
ELISA reading at 450 nm [9]: 0.06
ELISA reading at 450 nm [10]: 0.06
ELISA reading at 450 nm [11]: 0.06
Substance: N06 scFv (negative control)
